Laboratory results taken from patent US20240124602A1.

Target: canine CD20 (canine) (UniProt Q3C2E2)
Experiment: flow cytometry on canine PBMCs without 18F6 (control), FSC-H/SSC-H subset, Event Count 9100; FL1-H = 2o FITC alone, FL2-H = CD21-PE

Sequence of UniProt Q3C2E2 (Q3C2E2 whole entry): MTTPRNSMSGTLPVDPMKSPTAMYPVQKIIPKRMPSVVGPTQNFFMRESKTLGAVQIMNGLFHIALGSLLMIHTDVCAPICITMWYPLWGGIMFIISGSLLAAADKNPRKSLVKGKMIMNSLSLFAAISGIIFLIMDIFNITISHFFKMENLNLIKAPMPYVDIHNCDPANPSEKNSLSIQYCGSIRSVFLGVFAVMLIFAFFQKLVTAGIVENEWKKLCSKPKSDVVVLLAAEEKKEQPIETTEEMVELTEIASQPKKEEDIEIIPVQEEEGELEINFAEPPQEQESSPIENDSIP

quadrant number, lower left (FL1-H low, FL2-H low); unit not given: 72.5
quadrant number, lower right (FL1-H low, FL2-H high); unit not given: 22.9
quadrant number, upper left (FL1-H high, FL2-H low); unit not given: 2.18
quadrant number, upper right (FL1-H high, FL2-H high); unit not given: 2.37
Substance: 2o FITC (antibody)
